Assays:
[1] = molecular target: FcRn (UniProt P55899); assay: SPR; association with FcRn at pH 6.0, dissociation at pH 7.4
[2] = molecular target: human glucagon receptor (human) (UniProt P47871)
[3] = molecular target: FcγRIIA (UniProt P12318); assay: SPR; BIACORE T200, 25 °C; FcγRs immobilised by amine coupling on CM5 chips; test materials flowed over (HMC001 and I.V.-Globulin SN 31.25-500 nM, HM15136 30.38-486 nM); steady-state affinity fit
[4] = molecular target: FcγRIA (UniProt P12314); assay: as above
[5] = molecular target: FcγRIIIA (UniProt P08637); assay: as above
[6] = molecular target: FcγRIIIB (UniProt O75015); assay: as above
Sequence of FcγRIIIB (O75015 17-200): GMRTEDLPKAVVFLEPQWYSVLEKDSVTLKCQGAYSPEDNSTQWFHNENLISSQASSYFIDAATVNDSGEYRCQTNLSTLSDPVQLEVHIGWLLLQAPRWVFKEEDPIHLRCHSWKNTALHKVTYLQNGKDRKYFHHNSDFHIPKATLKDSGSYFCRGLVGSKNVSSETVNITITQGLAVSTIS

Sequence of FcγRIA (P12314 16-292): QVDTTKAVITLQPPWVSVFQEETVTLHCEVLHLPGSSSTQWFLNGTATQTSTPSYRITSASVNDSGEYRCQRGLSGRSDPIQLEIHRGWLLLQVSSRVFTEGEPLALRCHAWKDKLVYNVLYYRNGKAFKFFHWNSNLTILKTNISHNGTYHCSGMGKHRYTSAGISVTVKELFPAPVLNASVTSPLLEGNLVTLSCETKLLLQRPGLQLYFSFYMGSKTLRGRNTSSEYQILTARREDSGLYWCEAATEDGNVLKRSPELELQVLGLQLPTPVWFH
Sequence of FcγRIIIA (P08637 17-208): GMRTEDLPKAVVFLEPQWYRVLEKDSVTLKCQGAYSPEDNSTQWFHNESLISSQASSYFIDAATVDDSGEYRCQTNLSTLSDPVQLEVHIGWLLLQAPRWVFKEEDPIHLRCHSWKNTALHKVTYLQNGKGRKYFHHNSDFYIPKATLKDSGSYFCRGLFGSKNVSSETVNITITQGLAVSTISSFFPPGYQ
Sequence of FcγRIIA (P12318 34-217): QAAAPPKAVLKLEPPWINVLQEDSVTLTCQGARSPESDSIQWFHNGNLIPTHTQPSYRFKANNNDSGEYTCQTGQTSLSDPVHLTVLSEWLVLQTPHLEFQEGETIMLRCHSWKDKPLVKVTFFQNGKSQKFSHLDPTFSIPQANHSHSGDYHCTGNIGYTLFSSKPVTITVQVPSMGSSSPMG

Row | Ka [1] | EC50 of intracellular cAMP generation in hGCGR/CHO cells (0.0015 to 1555.2 nM HM15136) [2] [nM] | Kd [3] [nM] | Kd [4] [nM] | Kd [5] [nM] | Kd [6] [nM] | Substance
1 | 420000 | 0.024 | – | – | – | – | HM15136
2 | – | – | 184 | 26.7 | 209 | 1590 | IgG1 (=I.V.-Globulin SN) (antibody)
